Assay results reported in the RNAGym collection of RNA variant scans (doi:10.1073/pnas.2313332121).

B1: TPR t1 (parent)
chain: GACCAAUCUGCCCUCAGAGCUCGAGAACAUCUUCGGAUGCAGAGGAGGCAGGCUUCGGUGGCGCGAUAGCGCCAACGUCCUCAACCUCCAAUGCAUCCCACCACAUGAUGAUGCCUGAAGAGCCUUGGUUUUUUG

Variants of: B1
Assay: polymerase ribozyme fitness, log enrichment relative to wild type (log ratio); higher = more active; in vitro selection for triplet polymerase activity
Summary of the method: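 Fitness compares each genotype's enrichment to that of the wild type on a logarithmic scale, averaging replicates with inverse-variance weights. The logarithm is base 2. Enrichment came from Illumina sequencing of input and output libraries after one triplicate round of in vitro selection, which included frozen incubation at −7 °C, of PCR-built, transcribed mutant libraries of each subunit of a heterodimeric triplet polymerase ribozyme. Only genotypes with ≥10 input reads and ≥1 read per output were kept.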

Variant | polymerase ribozyme fitness (log ratio)
GACCAAUCUGUCCUCAGAGCUCGAGUACAUCUUCGGAUGCAGAGGAUGCAGGCUUCGGUGGCGCGAUAGCGCCAACGUCCUCAACCUCCAAUGCAUCCCACCACAUGAUGAUGCCUGAAGAGCCUUGGUUUUUUG | -3.55
GACCAAUCUGCCCUCAGAGCUCGAGAACAUCUUCGGAUGCAGAGGAGGCAGGCUUCGGUGGCGCGAUAGCGCCAACGUCCUCAACCUCCAAUGCAUCCCACCACAUGAUGAUGCCUGAAGAGCCUUGGUUUUUCG | -0.304
GACCAAUCUGCCCACAGAGCUCGAGAACAUCUUCGGAUGCAGAGGAGGCCGGCUUCGGUGGCGCGAUAGCGCCAACGUCGUCAACCUCCAAUGCAUCCCACCACAUGAUGAUGCCUGAAUAGCCUUGGUUUUUUG | -5.23
GACCAAUCUGCCGUCAGAGCUCGAGAACAUCUUCGGAUGCAGAGGACGCAGGCUUCGGUGGCGCGAUAGCGCCAACGUCCUCAACCUCCAAUGCCUCCCACCACAUGAUGAUGCCUGAAGAGCCUUGGUUUUUUG | -4.32
GACCAAUCUGCCCUCAGAGCUCGAGAACAUGUUCGGAUGCAUAGGAGGCAGGCUUCGGUGGCGCGAUAGCGCCAACGUCCUCAACCUCCAAUGCAUCCCACCACAUGAUGAUUCCUGAAGAGCCUUGGUUUUUUG | -5.66
GACCAAUAUGGCCUCAGAGCUCGAGAACAUCUUCGGAUGCAGAGGAGGCAGGCCUCGGUGGCGCGAUAGCGCCAACGUCCUCAACCUCCAAUGCAUCCCACCACAAGAUGAUGCCUGAAGAGCCUUGGUUUUUUG | 0.24
GACCAAUCUGCCCUCAGAGCUCGAGAACAUCUUCGGAUGCAGAGGAAGCAGGCUUCGGUGGCGCGAUAGCGCCAACGUCCUCAACCUCCAAUGCAUCCCACCACAUGAUGAUGCCUGAUGAGCCUUGGUUUUUUG | -1.02
GACCAAUCUGCCCUCAGAGAUCGAGAACAUCUUCGGAUGCAGAGGAGGAAGGCUUCGGUGGCACGAUAGCGCCAACGUCCACAACCUCCAAUGCAUCCCACCAUAUGAUGAUGCCUGAACAGCCUUGGUUUUAUU | -4.91
GACCAAUCUGCCCUCAGAGCUCGAGAACAUCUUCGGAUGCAGAGGAGGCAGGCUUCGGUGGCGCGAUAUCGGCAACGUCCUCAACCUCCAAUGCAUCCCACCACAUGAUGAUGCCUGAAGAGCCUUGGUUUUUUG | -1.29
GACCAAUCUGUCCUCAGAGCUCGAGAACAUCUUCGGAUGCAGAGGAGGCAGGCUUCGGUGGCGCGAUAGCGCCAACGUCCUCAACCUCCAAUGCAUCCCACCACAUGAUGAUGCCUGAAGAACCUUGCUUCUUUG | -0.489
GACCAAUCUGCCCUCAGAGCUCGAGAACAUCUUCGGAUGCAGAGGAGGCAGGUUUCGGUGGCGCGAUAGCACCAACGUCCUCAACCUCCAAUGCAUCCCACCACAUGAUGAUGCCUGAAGAGCAUUGCUUUUUUG | -1.39
GACCAAUCUGCCCUCAGAGCUCGAGAACAUCUUCGGAUGCAGAGGAGGAAGGCUUCGGUGGCGCGAUAGCGGCAACGUCCUCAACCUCCAAUGCAUCCCACCACAUGAUGAUGCCUGAAGAGCCUUGGUUUCUUG | -0.77
GACCAAUCUGCCCUCAGAGCUCGAGAACAUCUUCGGAUGCAGAGGAGGCAGGCUUCGGUGGCGCGAUAACGCCAACGGCCUCAACCUCCAAUGCAUCCCACCACAUGAUGAUGCCUGAAGAGCCUUGGUUUUUUG | -2.63
GACCAAUCUGCCCUCAGAGCUCGAGAACAUCUUCGGAUGCAGAGGAGGCAGGCUUCGGUGGCGCGAUAGCGCCAACGUCUUCAACCUCCAAUGCAUCACACCACAUGAUGAUGCCUGAAGAGCCUUGGUUUCUUG | -5.2
GACCAAUCUGCCCUCAGAGCUCGAGAACAUCUUCGGAUGCAGAGGAGGCAGGCUUCGGUGGUGCGAUAGCGCCAACGUCCUCAACCUCCAAUGCAUCCCACCACAUGAUGAUGCCUGAAGAGCAUUGGUUUUUUG | 1.84
GACCAAUAUGCCCUCAGAGCUCGAGAACAUCUUCGGAUGAAGGGGAGGCAGGCUUCGGUAGCGCGAUAGCGCCAACGUCCUCAACCUCCAAUGCAUCCCACCACAUGAUGAUGCCUGAAGAGCCUUGGUUUUUUG | -3.37
GUCCAAUCUGCCCUCAGAGCUCGAGAACAUCUUCGGGUGCAGAGGAGGCAGGCUUCGGUGGCGCGAUAGCGCCAAGGUCCUCAACCUCCAAUGCAUCCCACCACAUGAUGAUGCCUGAAGAGCCUUGGUUUUUUG | -3.35
GACCAAUCUGCCCUCAGAGCUCGAGAACAUCUUCGGAUGCAGAGGAGGCAGGCUUCGGUGGCGCGAGAUCGCCAACGUCCUCAACCUCCAAUGCAUCCCACCACAUGAUGAUUCCUGAAGAGCCUUGGUUUUUUG | -7.04
GACCAAUCUGCCCUCAGAGCUCGAGAACAUCUUCGGAUGCAGAGGAGGCAGGCUUCGGUGGCGCGAUAGCGCCAACGUCCUCAACCUCCAAUACAUCCCACCACAUGAUGAUGACUGAUGACCCUUGGUUUUUUG | -3.4
GACCAAUCUGCCCUCAGAGCUCGAGAACAUCUUCGGAUGCAGAGGACGCAGGCUUCGGUGGCGCGAUAGCGUCAACGUCCUCAAACUCCAAUGCAUCCGACCACAUGAUAAUGCCUGAAGAGCCUUGGUUUUUUG | -7.27
GACCAAUCUGUCCUCAGAGCUCGAGAACAUCUUCGGAUGCAGAGGAGGCAGGUUUCGGUGGCGCGAUAUCGCCAUCGUCCUCAGCCUCCAAUGCAUCCCACCACAUGAUGAUGCCUGAAGAGCCUUGGUUUUUUG | -1.1
